# From the nanobody polyreactivity screen of Harvey et al. (2022)
# Assay: yeast display, Sf9 membrane polyspecificity reagent, FACS + sequencing; frameworks hold sequencing errors
# Method in brief: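 In a synthetic yeast display library (Saccharomyces cerevisiae BJ5465), nanobody expression was induced with galactose for 36–48 hours. FACS gates were set low and high (top ~1%) using anti-HA fluorescence for expression and streptavidin fluorescence for binding of the Sf9 membrane reagent. Each polyreactivity label is drawn from the gate of origin.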
row,Sequence,polyreactivity (PSR sort gate)
1,QVQLVESGGGLVQAGGSLRLSCAASGRTFPRYVMGWNRQAPGKERELVAAISSSGGSTYYADSVKGRFTISRDNAKNTVYLQMNSLKPEDTAVYYCAAPSGGSKRYYYWGQGTKVTVSS,high polyreactivity
2,QVQLVESGGGLVQAGGSLRLSCAASGRTFPSYAMGWYRQAPGKERELVAAITRGGSTNYADSVKGRFTISRDNAKNTVYLQMNSLKPEDTAVYYCAAARWRWQLARDDYWGQGTQVTVSS,high polyreactivity
3,QVQLVESGGGLVQAGGSLRLSCAASGRTFPSYAMGWYRQAPGKERELVAAITRGGSTNYADSVKGRFTISRDNAKNTVYLQMNSLKPEDTAVYYWAAARWRWQLARDDYWGQGTQVTVSS,high polyreactivity
4,QVQLVESGGGLVQAGGSLRLSCAASGRTFPSYAMGWYRQAPGTERELVAAITVSGGNTYYAHSVKGRFTISRDNAKNTVYLQMNSLKPEDTAVYYCNTPSYVSWYVHYYYWGQGTQVTVSS,low polyreactivity
5,QVQLVESGGGLVQAGGSLRLSCAASGRTFPSYAMGWYRQSPGKERELVAAITVSGGNTYYADSVKGRFTISRDNAKNTVYLQMNSLKPEDTAVYYCNTASYVSWYVHYYYWGQGTQVTVSS,low polyreactivity
6,QVQLVESGGGLVQAGGSLRLSCAASGRTFPTNAMGWYRQAPGKERELVARITWSGGSTYADSVKGRFTISRDNAKNTVYFQMNSLKPEDTAVYYCAARGYKPQFPWRRYDYWGQGTQVTVSS,high polyreactivity
7,QVQLVESGGGLVQAGGSLRLSCAASGRTFPVNAMGWYRQAPGKERELVAAITTNGGRTYYADSVKGRFTISRDNAKNTVYLQMNSLKPEDTAVYYCATRAYNDKRYGYWGQGTQVTVSS,high polyreactivity
8,QVQLVESGGGLVQAGGSLRLSCAASGRTFPWYAMGWYRQAPGKERELVADITWSGGSTYYADSVKGRFTISRDNAKNTVYLQMNSLKPEDTAVYYCATRVLFWYRKYPGRPLTKYDYWGQGTQVTVSS,high polyreactivity
9,QVQLVESGGGLVQAGGSLRLSCAASGRTFPWYAMGWYRQAPGKERELVATISRSGASTYYADSVKGRFTISRDNAKNTVYLQMNSLKPEDTAVYYCAARLGYATLYSWGQGTQVTVSS,high polyreactivity
10,QVQLVESGGGLVQAGGSLRLSCAASGRTFPYNAMGWYRQAPGKERELVAAISYSGGRTYYADSVKGRFTISRDNAKNTVYLLMNSLKPEDTAVYYCNALGSGREDDYWGQGTQVTVSS,high polyreactivity
11,QVQLVESGGGLVQAGGSLRLSCAASGRTFPYNAMGWYRQAPGKERELVAVISSSGGSTYYADSVKGRFTISRDNAKNTVYLQMNSLKPEETAVYYCNTRPYYYRRPGYRYSGYDYWGQGTQVTVSS,high polyreactivity
12,QVQLVESGGGLVQAGGSLRLSCAASGRTFPYYAMGWSRQAPGKERELVAGITSNAGSTYYADSVKGRFTISRDNAKNTVYLQMNSLKPEDTAVYYCAKTKAGRWTTFKFGYWGQGTQVTVSS,high polyreactivity
13,QVQLVESGGGLVQAGGSLRLSCAASGRTFPYYAMGWYRQAPGKEREFVAGISRTGGSTYYADSVKGRFTISRDNAKNTVYLQMNSLKPEDTAVYYCNAPYIMTQQGGRRYDYWGQGTQVTVSS,high polyreactivity
14,QVQLVESGGGLVQAGGSLRLSCAASGRTFPYYAMGWYRQAPGKERELVAAINGRGGSTYYSDSVKGRFTISRDNAKNTVYLQMNSLKPEDTAVYYCAARYESRYSRYGYWGQGTQVTVSS,high polyreactivity
15,QVQLVESGGGLVQAGGSLRLSCAASGRTFPYYAMGWYRQAPGKERELVAAISYSGGTTYYADSVKGRFTISRDNAKNTVYLQMNSLKPEDTAVYYCAAERAILSSDKQSLWRFDYWGQGTQVTVSS,low polyreactivity
16,QVQLVESGGGLVQAGGSLRLSCAASGRTFPYYAMGWYRQAPGKERELVARIRSDGSTNYADSVKGRFTISRDNAKNTVYLQINSLKPDDTAVYDCAAKPYPSLFFHYGYWGQGTQVTVSS,low polyreactivity
17,QVQLVESGGGLVQAGGSLRLSCAASGRTFPYYAMGWYRQAPGKERELVARITSGSGTYYADSVKGRFTISRDNAKNTVYLQMNSLKPEDTAVYYCAAREPGVGYVGHYTGLDYWGQGTQVTVSS,low polyreactivity
18,QVQLVESGGGLVQAGGSLRLSCAASGRTFPYYDIGWYRKAPGKERELVAAITSGGTTNYADSVKGRFTISRDNAKNTVYLQMNSLKPEDTAVYNCAAGSPWYYFSSYGYWGQGTQVTVSS,low polyreactivity
19,QVQLVESGGGLVQAGGSLRLSCAASGRTFQDNAMGWNRQAPGKETELVAAISWRGGSTNYADSVKGRFTISRDHAKNTVYLQMNSLKPEHTAVYYCNRDPRKYGKLDYWGQGTQVTVSS,low polyreactivity
20,QVQLVESGGGLVQAGGSLRLSCAASGRTFQENGMGWYRQAPGKERELVATISQRGTSTYYADSVKGRFTISRDNAKNTVYLQMNSLKPEDTAVEYCARRRVYRWYTGDYWGQGTQVTVSS,low polyreactivity
21,QVQLVESGGGLVQAGGSLRLSCAASGRTFQEYAMGWYRQAPGKERELVADISDGGSTNYADSVKGRFTISRDNAKNTVYLQMYRLKPEDTAVYYCAADQYHGVGINFRSDYDYWGQGTQVTVSS,low polyreactivity
22,QVQLVESGGGLVQAGGSLRLSCAASGRTFQKYAMGWYRQAPGKERELVAAITGSGGSTYYADSVKGRFTISRDIAKYTVYLQMNSLKPEDTAVYYCAAYAYGVWHSQDGGNYWGQGTLVTVSS,low polyreactivity

row,Sequence,polyreactivity (PSR sort gate)
1,QVQLVESGGGLVQAGGSLRLSCAASGRTFQNYAMGWYRQAPGKERELVADITSGGSTYADSVKGRFTMSRDNAKNTVYLQMNSLKPEDTAVYYCNADRTYPEPAEYYYWGQGTQVTVSS,low polyreactivity
2,QVQLVESGGGLVQAGGSLRLSCAASGRTFQPNVMGLFRQEPGKESELVAAISWSGASTYYADSVKGRFTISRDNAKNTVYLQMNSLKPEDTSVYYCAAEFPFPPACDYWGQGTQVTVSS,low polyreactivity
3,QVQLVESGGGLVQAGGSLRLSCAASGRTFQRYALGWYRQAPGKERELVAAITSRGGSTYYADSVKGRFTISRDNAKNTDYLQMNSLIPEETAVYYCSARSRRTHSEPQSEMDYWGQGTQVTVSS,high polyreactivity
4,QVQLVESGGGLVQAGGSLRLSCAASGRTFQRYAMGWYRQAPGKERELVAAITSGSRTNYADSVKGRFTSSRDNAKNTVYLQMNSLKPEDTAVYYCAADYTWRNNYCGQGTQVTVSS,high polyreactivity
5,QVQLVESGGGLVQAGGSLRLSCAASGRTFQTNDMGWYRQAPGKERELVAAISRRGGSTYYADSVKGRFTISRDNAKNTVYLQMNSLKPEDTAVYYCAATRLSRYEYWGQGTQVTVSS,low polyreactivity
6,QVQLVESGGGLVQAGGSLRLSCAASGRTFQTYAMGWYRQAPGTERELVAAISSDGSTYYADSVKGRFTISRDNATNTVYFQMHSLKPEDTAVYYRNTAIGDKYDYHVRVDYEYWGQGTQVTLSS,low polyreactivity
7,QVQLVESGGGLVQAGGSLRLSCAASGRTFQYNAMGWNRQAPGKERELVAAISWSDGITYYADSVKGRFTISRDNAKNTVFLQMNSLKPEDTAVYYCAAEGYGLSYYFPYDYWGQGTQVTVSS,high polyreactivity
8,QVQLVESGGGLVQAGGSLRLSCAASGRTFQYNAMGWNTQAPGKERELVAAISSGGSTYYADSVKGRFTISRDNAKNTVYLQMNSLKPEDTAVYYCNAVTGYQHVKYRYYYWGQGTQVTVSS,low polyreactivity
9,QVQLVESGGGLVQAGGSLRLSCAASGRTFQYYAMGWYRQAPGKERELVAAISGIGTSTSYADSVKGRFTISRDNAKNTVYLQMNSLKPEDTAVYYCAARLLVPCSPWYTNYYWGQGTQVTVSS,low polyreactivity
10,QVQLVESGGGLVQAGGSLRLSCAASGRTFQYYAMGWYRQAPGKERELVAAISGIGTSTSYADSVKGRFTISRDNAKNTVYLQMNSLKPEDTAVYYCAARLLVPGSPWYTNYYWGQGTQVTVSS,low polyreactivity
11,QVQLVESGGGLVQAGGSLRLSCAASGRTFQYYAMGWYRQAPGKERELVAAITWSGTSTYYADSVKGRFTISRDNAKNTVYLQMNSLKPEDTAVYYCNKYSPYITYDYDYWGQGTQVTVSS,high polyreactivity
12,QVQLVESGGGLVQAGGSLRLSCAASGRTFQYYAMGWYRQAPGKERELVATISYSGGSTSYADSVKGRFTISRDNAKNTVYLQMNSLKPEDTAVYYCAADYYYGDALSPSYPHWDFYYWGQGTQVTVSS,low polyreactivity
13,QVQLVESGGGLVQAGGSLRLSCAASGRTFRAYAMGWYRQAPGKERELVAAITGGGSTKYADSVKGRFTISRDNAKNTVYLQMNSLKPEETAVYYCAATGRSGVLSSYYYWGQGTQVTVSS,high polyreactivity
14,QVQLVESGGGLVQAGGSLRLSCAASGRTFRDNAMGWYRQAPGKERELVAAISSGDRTNYADSVKGRFTISRDNAKNTVYLQMNSLKPEETAVYYCAAVRYNSRVSTTPSEMYYWGQGTQVTVSS,low polyreactivity
15,QVQLVESGGGLVQAGGSLRLSCAASGRTFRDNAMGWYRQAPGKERELVAAISWSGGSTYYADSVKGRFTISRDNAKNTVYLQMNSLKPEDTAVYYCAASGYYRYTPFRYDHWGQGTQVTVSS,low polyreactivity
16,QVQLVESGGGLVQAGGSLRLSCAASGRTFRDYVMGWYRQAPGKERELVAAISTRGASTYYADSVKGRFTISRDYAKNTVYLQMNSLKPEDTAVYYCAARSTRRGNEYDYWGQGTQVTVSS,high polyreactivity
17,QVQLVESGGGLVQAGGSLRLSCAASGRTFRFNTMGWYRQAPGKERELVAAITSSGGSTYYADSVKGRFTISRDNAKNTVYLQMNSLKPEDTAVYYCAKRFYYRNRFDYWGQGTQVTVSS,low polyreactivity
18,QVQLVESGGGLVQAGGSLRLSCAASGRTFRFYAMGWYRQAPGKERELVAAITYGGGSTYYADSVKGRFTISRDNAKNTVYLQMNSLKPEDTAVYYCAARAGRVPSWSGRTRYYYGGQGTQVTVSS,high polyreactivity
19,QVQLVESGGGLVQAGGSLRLSCAASGRTFRFYVMGWYRQAPGKERELVAAISRGGGSTYYADSVKGRFTISRDNAKNTVYLQMNSLKPEDTAVYYCAAKPYKTRSSYWGDYYWGQGTQVTVSS,high polyreactivity
20,QVQLVESGGGLVQAGGSLRLSCAASGRTFRGNAIGWYRQAPGKERELVAAIRWNGGSTYYADSVKGRFTISRDNAKNTVYLQMNSLKPEDTAVYYCAVSYWYSRYDYWGQGTQVTVSS,high polyreactivity
21,QVQLVESGGGLVQAGGSLRLSCAASGRTFRGNAMGWYRQAPGKERELVAAISGSGGRTYYADSVKGRFTISRDNAKNTVYLKMNSLKPEDTAVFYCAAKRGKTYQRFDYWGQGTQVTVSS,high polyreactivity
